The results in this text go back to paper PMC9934059, “Characterization of a glycan-binding complex of minor pilins completes the analysis of Streptococcus sanguinis type 4 pili subunits” (Proceedings of the National Academy of Sciences of the …, 2023).

The Kd is the concentration at which binding is half-saturated. What is called stoichiometry N is a count of units in the complex or per binding partner.

The target of assay [1] is 6His–PilC (Streptococcus sanguinis 2908). The assay can be described thus: ITC; MicroCal ITC200; average ± SD of three (mutants: 2 to 3) independent experiments. On the technique in general: ITC needs no label: the signal is the heat of the interaction.
In assay [2] the target is 6His–PilA (Streptococcus sanguinis 2908). As to the kind of experiment: SEC-MALS; ÄKTA Prime, S200 10/300 GL column, Wyatt MALS detector; 6His–PilA and 6His–PilC separately and after mixing equimolar amounts.
Assay [3] has as its target 6His–PilC (Streptococcus sanguinis 2908). The assay is described as above.
Another assay has as its target 6His–PilC. The assay can be described thus: ITC. The conditions noted are these: parent: est. 1.0; read off a plot.
The target of assay [4] is T1, PilC (Streptococcus sanguinis, UniProt A0A0B7GRV8, K358A).
T1 construct: PilCΔpilin (lacking the pilin moiety), strain 2908
T1 sequence (A0A0B7GRV8 122-486 K358A): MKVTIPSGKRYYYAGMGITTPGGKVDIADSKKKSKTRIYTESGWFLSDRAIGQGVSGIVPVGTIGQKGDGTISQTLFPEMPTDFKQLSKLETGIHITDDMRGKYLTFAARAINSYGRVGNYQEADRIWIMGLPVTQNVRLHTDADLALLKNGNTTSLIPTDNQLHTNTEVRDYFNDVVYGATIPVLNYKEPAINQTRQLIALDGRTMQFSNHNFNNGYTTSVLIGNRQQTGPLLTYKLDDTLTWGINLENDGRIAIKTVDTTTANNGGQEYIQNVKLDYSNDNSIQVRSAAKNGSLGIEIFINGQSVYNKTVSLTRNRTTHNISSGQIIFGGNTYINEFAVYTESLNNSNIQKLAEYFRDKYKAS
As to the kind of experiment: ITC of mutant, KD ratio to WT (reduced affinity). The class given is binding.

Assay [5] concerns the target T2, PilC (Streptococcus sanguinis, UniProt A0A0B7GRV8).
T2 construct: 6His–PilCΔpilin (lacking the pilin moiety; Ig-like and lectin modules), strain 2908
The assay can be described thus: ITC (three independent experiments); supported by glycan microarray. The class given is binding.

In assay [1], 6His–PilA (domain or fragment) came in with a Kd of 0.0238 µM. In addition, the stoichiometry N in assay [2] was found to be 2; in assay [3] it was 1.

With 6His–PilA A68S, in the assay with 6His–PilC, the ratio to parent was determined as 0.87.

Consider 6His–PilA K85A, for which, in the assay with 6His–PilC, the ratio to parent worked out at 0.98.

Regarding `CC(=O)N[C@H]1[C@H]([C@H](O)[C@H](O)CO)O[C@@](O[C@H]2[C@@H](O)[C@@H](CO)O[C@@H](O[C@H]3[C@H](O)[C@@H](O)C(O)O[C@@H]3CO)[C@@H]2O)(C(=O)O)C[C@@H]1O` (stereo partly drawn) [3′-SL, 3′-sialyllactose], on PilC [4], the “% of WT binding” value was 39.3 ± 1.4 % of WT binding. The molecule further displayed a Kd on PilC [5] of 79.1 ± 0.36 µM.

On to `CC(=O)N[C@H]1[C@H]([C@H](O)[C@H](O)CO)O[C@@](O[C@H]2[C@@H](O)[C@@H](CO)O[C@@H](O[C@H]3[C@H](O)[C@@H](NC(C)=O)C(O)O[C@@H]3CO)[C@@H]2O)(C(=O)O)C[C@@H]1O` (stereo partly drawn) [3′-SLN, 3′-sialyl-N-acetyllactosamine], for which the Kd on PilC [5] came out at 144 ± 7.36 µM.

For the molecule “PilA_(T87A) (from UniProt A0A0B7GNW3 33-164) (domain or fragment)”, in assay [1], the percent of the wild-type (WT) binding (KD ratio to the WT) worked out at 38.3%.
